Target: mouse Atg7 (mAtg7) (mouse) (UniProt Q9D906)
Sequence (Q9D906 whole entry): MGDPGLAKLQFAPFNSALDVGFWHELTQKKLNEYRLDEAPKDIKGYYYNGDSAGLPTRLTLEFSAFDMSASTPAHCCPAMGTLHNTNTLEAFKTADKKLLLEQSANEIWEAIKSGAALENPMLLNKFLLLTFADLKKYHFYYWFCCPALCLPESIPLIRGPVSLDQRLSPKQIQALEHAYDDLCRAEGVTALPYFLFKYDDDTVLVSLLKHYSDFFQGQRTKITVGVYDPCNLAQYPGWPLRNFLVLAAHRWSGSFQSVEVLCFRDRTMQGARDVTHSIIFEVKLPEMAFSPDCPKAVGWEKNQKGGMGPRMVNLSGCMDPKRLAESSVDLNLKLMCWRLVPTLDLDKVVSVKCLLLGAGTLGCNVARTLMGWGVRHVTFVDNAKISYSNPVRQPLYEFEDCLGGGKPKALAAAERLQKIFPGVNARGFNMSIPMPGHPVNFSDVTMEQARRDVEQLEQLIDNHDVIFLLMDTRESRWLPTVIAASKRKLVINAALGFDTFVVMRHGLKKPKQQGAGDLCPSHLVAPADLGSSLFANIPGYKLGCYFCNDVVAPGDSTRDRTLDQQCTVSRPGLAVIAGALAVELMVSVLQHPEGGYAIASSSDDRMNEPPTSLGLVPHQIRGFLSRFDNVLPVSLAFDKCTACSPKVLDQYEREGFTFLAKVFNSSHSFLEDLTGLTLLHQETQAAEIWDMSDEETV

LC3B-hAtg3^∆90-190 thioester intermediate formed, after 1 h [%]	LC3B–PE conjugase activity compared to the wild type (in vitro conjugation assay) [%]	LC3B-hAtg3 thioester intermediate formed, within 30 min [%]	Substance
25	50	–	hAtg3^∆90-190 (from UniProt Q9NT62 1-314) (enzyme)
–	–	70	human Atg3 (hAtg3), wild type (from UniProt Q9NT62 1-314) (enzyme)

From publication PMC7809043
